The results in this text go back to patent publication US8877192B2, “Rage fusion proteins and methods of use” (TransTech Pharma, LLC, priority 2004, dated 2014).

In one data set the target is T1, amyloid-beta (Abeta) (Homo sapiens, UniProt P05067).
T1 construct: Amyloid Beta (1-40) from Biosource; purchased Biosource
Briefly: In vitro ligand binding (ELISA) to immobilized amyloid-beta. Conditions: increasing dilutions of fusion protein; FIG. 7. The method, then: (§1) For example, the RAGE fusion protein may be used in a binding assay to identify potential RAGE ligands. In one example embodiment of such a binding assay, a known RAGE ligand may coated onto a solid substrate (e.g., Maxisorb plates) at a concentration of about 5 micrograms per well, where each well contains a total volume of about 100 microliters (μL). The plates may be incubated at 4° C. overnight to allow the ligand to absorb. Alternatively, shorter incubation periods at higher temperature (e.g., room temperature) may be used. […] The fusion protein bound to the immobilized ligand may be detected in a variety of ways. […] The bound complex may be detected by adding the alkaline phosphatase substrate, para-nitrophenylphosphate (PNPP), and measuring conversion of PNPP to para-nitrophenol (PNP) as an increase in absorbance at 405 nm. […] Binding was detected by the addition of an immunodetection complex containing a monoclonal mouse anti-human IgG1 diluted 1:11,000 to a final assay concentration (FAC) of 21 ng/100 μL, a biotinylated goat anti-mouse IgG diluted 1:500, to a FAC of […], and an avidin-linked alkaline phosphatase. […] Binding of the complex to the immobilized fusion protein was quantified by measuring conversion of PNPP to para-nitrophenol (PNP) which was measured spectrophotometrically at 405 nm. […]

A further data set has as its target T2, amphoterin (Ampho) (Homo sapiens, UniProt P09429).
T2 sequence (P09429 1-215): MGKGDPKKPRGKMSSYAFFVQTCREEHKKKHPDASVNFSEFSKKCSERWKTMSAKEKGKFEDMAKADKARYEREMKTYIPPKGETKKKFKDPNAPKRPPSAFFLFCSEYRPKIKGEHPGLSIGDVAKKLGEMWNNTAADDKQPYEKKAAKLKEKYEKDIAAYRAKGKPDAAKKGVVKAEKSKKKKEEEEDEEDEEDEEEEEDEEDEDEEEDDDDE
Briefly: In vitro ligand binding (ELISA) to immobilized amphoterin. Conditions: increasing dilutions of fusion protein; FIG. 7. The method, then:
as §1
(An ELISA detects its analyte on a solid surface through an enzyme-linked reagent.)

Data set [1] has as its system S100b/RAGE-induced production of TNF-α in THP-1 cells. Briefly: S100b/RAGE-induced production of TNF-α in THP-1 cells. The data set is classed as cell-based. Conditions: FIG. 10. As for the experimental part: THP-1 myeloid cells may be cultured in RPMI-1640 media supplemented with 10% FBS and induced to secrete TNF-α via stimulation of RAGE with S100b. When such stimulation occurs in the presence of a RAGE fusion protein, induction of TNF-α by S100b binding to RAGE may be inhibited.
Previous work has shown that the myeloid THP-1 cells may secrete TNF-α in response to RAGE ligands. In this assay, THP-1 cells were cultured in RPMI-1640 media supplemented with 10% FBS using a protocol provided by ATCC. […] The amount of TNF-α secreted by the THP-1 cells was measured 24 hours after the addition of the proteins to the cell culture using a commercially available ELISA kit for TNF-α (R&D Systems, Minneapolis, Minn.).

A further data set has as its system Fc receptor. The data set is described as follows: Fc receptor activation: TNF-α secretion from THP-1 cells. The data set is classed as cell-based. To be noted: wells precoated with 10 ug/well heat aggregated protein, 24 hours, FIG. 12. From the text:
Fc stimulation results in TNF-α secretion.

T1 sequence (P05067 672-711 limits assumed): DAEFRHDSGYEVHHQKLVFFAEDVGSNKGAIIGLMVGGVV

B1: TTP-4000: four domain RAGE fusion protein (SEQ ID NO: 32): human RAGE amino acids 1-251 linked to CH2 and CH3 domains of human IgG (protein)
chain: MAAGTAVGAWALVLSLWGAVVGAQNITARIGEPLVLKCKGAPKKPPQRLEWKLNTGRTEAWKVLSPQGGGPWDSVARVLPNGSLFLPAVGIQDEGIFRCQAMNRNGKETKSNYRVRVYQIPGKPEIVDSASELTAGVPNKVGTCVSEGSYPAGTLSWHLDGKPLVPNEKGVSVKEQTRRHPETGLFTLQSELMVTPARGGDPRPTFSCSFSPGLPRHRALRTAPIQPRVWEPVPLEEVQLVVEPEGGAVAPPSVFLFPPKPKDTLMISRTPEVTCVVVDVSHEDPEVKFNWYVDGVEVHNAKTKPREEQYNSTYRVVSVLTVLHQDWLNGKEYKCKVSNKALPAPIEKTISKAKGQPREPQVYTLPPSRDELTKNQVSLTCLVKGFYPSDIAVEWESNGQPENNYKTTPPVLDSDGSFFLYSKLTVDKSRWQQGNVFSCSVMHEALHNHYTQKSLSLSPGK
As for B1, the “binding to immobilized amyloid-beta (absorbance at 405 nm)” value in the data set with amyloid-beta (Abeta) is given as “specifically interact”. Also, the “binding to immobilized amphoterin (absorbance at 405 nm)” value with amphoterin (Ampho) is “specifically interact”. For the same molecule, in data set [1] (10 μg protein, S100b 0.1 mg/ml FAC, 24 hours), the “reduction of induction of TNF-α by S100b” value is given as about 70%. The “blocking S100b induction of TNF-α compared with sRAGE” value in data set [1] (10 μg) is recorded as “at least as effective in blocking S100b induction of TNF-α as is sRAGE”. For the same molecule, in the data set on Fc receptor, the TNF generated result was “less than 2 ng/well”.
